The target of assay [1] is T1, myotilin (full length, 498 residues) (human, UniProt Q9UBF9 1-498).
T1 construct: In the yeast two-hybrid assay, full-length myotilin was expressed as a bait (EG202) or prey (JG4-5) fusion protein; In Western blots and staining it was the endogenous muscle protein; also called full-length myotilin
T1 sequence: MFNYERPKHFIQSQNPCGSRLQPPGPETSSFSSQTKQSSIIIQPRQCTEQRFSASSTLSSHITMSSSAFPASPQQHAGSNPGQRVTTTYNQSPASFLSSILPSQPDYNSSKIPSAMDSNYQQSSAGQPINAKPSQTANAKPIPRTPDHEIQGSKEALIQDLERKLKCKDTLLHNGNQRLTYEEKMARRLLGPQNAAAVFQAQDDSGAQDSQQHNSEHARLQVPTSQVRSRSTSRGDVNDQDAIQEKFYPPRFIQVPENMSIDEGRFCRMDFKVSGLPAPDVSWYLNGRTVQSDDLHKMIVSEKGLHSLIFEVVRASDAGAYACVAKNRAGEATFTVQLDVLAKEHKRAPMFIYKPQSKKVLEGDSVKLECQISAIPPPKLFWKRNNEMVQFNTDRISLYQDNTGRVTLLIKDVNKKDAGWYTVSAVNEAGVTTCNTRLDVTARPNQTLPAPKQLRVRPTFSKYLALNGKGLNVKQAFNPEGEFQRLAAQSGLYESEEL
Put plainly: yeast two-hybrid. The procedure: (§1) The COOH-terminal construct of myotilin was subcloned from a partial cDNA sequence obtained from the skeletal muscle library screen. The authentity of the constructs was verified by sequencing. The genotype of the S. cerevisiae strain BOY1, kindly provided by P. Ljungdahl, Ludwig Institute for Cancer Research, Stockholm, Sweden, is MATαhis3 trp1 leu2::6LexAop-LEU2 URA3::8LexAop-Gal1-LacZ. Boy1 mating type a was made using the YCPHO CUT4 plasmid. Yeast strains were grown at 30° C. in rich medium or in synthetic minimal medium with appropriate amino acid supplements. Bait and prey constructs were transformed into BOY1-yeast of both a and a mating type using the TRAFO protocol and plated on selection plates. Clones were grown to late logarithmic phase in selective medium. For analysis of fusion protein expression, yeast cells from 1 ml of overnight culture were lysed in reducing Laemmli sample buffer, the samples were boiled and analyzed by SDS-PAGE and immunoblotting. Baits and preys were grown on selection plates, replica plated together on rich media plates for mating overnight and replica plated on double (tryptophane and histidine) or triple (tryptophane, histidine and leucine) selection with or without 5-bromo-4-chloro-3-indolyl-β-D-galactopyranoside (X-gal)(Boehringer) for selection of interactions.

The target in assay [2] is T2, spectrin-like repeats R1-R4 (residues 267-749) of chicken smooth muscle α-actinin (chicken, UniProt P05094 267-749).
T2 construct: range 267-749; Expressed as a bait (EG202) or prey (JG4-5) fusion protein in the yeast two-hybrid assay; also called α-actinin (R1-R4)
T2 sequence (P05094 267-749 limits assumed): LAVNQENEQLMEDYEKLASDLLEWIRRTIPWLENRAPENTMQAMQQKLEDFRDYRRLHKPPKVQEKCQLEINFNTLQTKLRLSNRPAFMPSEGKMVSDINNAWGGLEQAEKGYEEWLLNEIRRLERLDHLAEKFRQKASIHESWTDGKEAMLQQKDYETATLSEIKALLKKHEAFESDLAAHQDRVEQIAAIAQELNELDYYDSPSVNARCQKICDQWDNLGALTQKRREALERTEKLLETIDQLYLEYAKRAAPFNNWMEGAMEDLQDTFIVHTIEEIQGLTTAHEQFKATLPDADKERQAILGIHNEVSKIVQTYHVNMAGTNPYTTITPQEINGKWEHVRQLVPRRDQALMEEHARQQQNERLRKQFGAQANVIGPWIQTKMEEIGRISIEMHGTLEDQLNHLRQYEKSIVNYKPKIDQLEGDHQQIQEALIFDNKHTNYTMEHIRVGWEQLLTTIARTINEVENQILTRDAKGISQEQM
Kind of assay: yeast two-hybrid. The procedure: as §1

B1: myotilin215-498 (other)
chain: SEHARLQVPTSQVRSRSTSRGDVNDQDAIQEKFYPPRFIQVPENMSIDEGRFCRMDFKVSGLPAPDVSWYLNGRTVQSDDLHKMIVSEKGLHSLIFEVVRASDAGAYACVAKNRAGEATFTVQLDVLAKEHKRAPMFIYKPQSKKVLEGDSVKLECQISAIPPPKLFWKRNNEMVQFNTDRISLYQDNTGRVTLLIKDVNKKDAGWYTVSAVNEAGVTTCNTRLDVTARPNQTLPAPKQLRVRPTFSKYLALNGKGLNVKQAFNPEGEFQRLAAQSGLYESEEL
notes: Expressed in the yeast two-hybrid assay as a prey fusion protein in JG4-5; it could not be expressed as a bait; also called NH2-terminal deletion construct containing the Ig-domains
As to B1, the binding result was “binds” in assay [1] and “no binding” in assay [2].

The values are drawn from patent US6458929 (LICENTIA, dated 2002).
